Experimental findings from PMC11082093, “A 3′‐pre‐tRNA‐derived small RNA tRF‐1‐Ser regulated by 25(OH)D promotes proliferation and stemness by inhibiting the function of MBNL1 in breast cancer” are described below.

Data set [1] concerns the target T1, MBNL1 recombinant (UniProt Q9NR56 1-388).
T1 sequence: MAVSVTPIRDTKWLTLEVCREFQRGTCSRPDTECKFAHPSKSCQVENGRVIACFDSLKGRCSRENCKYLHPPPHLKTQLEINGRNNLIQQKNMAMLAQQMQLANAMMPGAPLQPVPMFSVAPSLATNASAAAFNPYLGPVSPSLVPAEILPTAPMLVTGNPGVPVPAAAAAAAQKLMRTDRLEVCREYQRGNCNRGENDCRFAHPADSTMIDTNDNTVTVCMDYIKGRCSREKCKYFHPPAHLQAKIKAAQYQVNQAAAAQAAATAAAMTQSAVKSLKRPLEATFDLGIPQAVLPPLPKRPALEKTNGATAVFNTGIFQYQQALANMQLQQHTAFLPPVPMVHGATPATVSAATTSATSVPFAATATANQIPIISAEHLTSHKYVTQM
As to the kind of experiment: EMSA; EMSA: REMSA Binding Buffer (Beyotime), 4 °C, 10 min; 6% TBE PAGE in ice box; salt and pH not given. Particulars: protein: commercial; label: biotin. On the technique in general: Mobility shift assays separate free from complexed probe on a gel.

Data set [2] deals with T1, MBNL1 recombinant. Kind of data set: competition; excess unlabelled vs biotin-labelled tRF-1-Ser; EMSA; EMSA: REMSA Binding Buffer (Beyotime), 4 °C, 10 min; 6% TBE PAGE in ice box; salt and pH not given. Particulars: protein: commercial.

As for GAAGCGGGCAACCUUAUUUU (ssRNA) [tRF-1-Ser-UGCU-mut], in data set [1], the binding result is recorded as “no binding”.

Regarding GAAGCGGGUGCUCUUAUUUU (ssRNA) [tRF-1-Ser], the binding result in data set [1] is listed as “binds”.

For the molecule GAAGCGGGUGCUCUUAUUUU (ssRNA) [tRF-1-Ser unlabelled (mimic)], the binding result in data set [2] is “binds”.
